Residue numbers refer to the chain shown, from its start.
T1: α11β1 expressed on the surface of CHO-K1 cells (Homo sapiens, UniProt Q9UKX5)
T1 construct: expressed in transfected cells; host or cells: CHO-K1
T1 sequence (Q9UKX5 23-1188): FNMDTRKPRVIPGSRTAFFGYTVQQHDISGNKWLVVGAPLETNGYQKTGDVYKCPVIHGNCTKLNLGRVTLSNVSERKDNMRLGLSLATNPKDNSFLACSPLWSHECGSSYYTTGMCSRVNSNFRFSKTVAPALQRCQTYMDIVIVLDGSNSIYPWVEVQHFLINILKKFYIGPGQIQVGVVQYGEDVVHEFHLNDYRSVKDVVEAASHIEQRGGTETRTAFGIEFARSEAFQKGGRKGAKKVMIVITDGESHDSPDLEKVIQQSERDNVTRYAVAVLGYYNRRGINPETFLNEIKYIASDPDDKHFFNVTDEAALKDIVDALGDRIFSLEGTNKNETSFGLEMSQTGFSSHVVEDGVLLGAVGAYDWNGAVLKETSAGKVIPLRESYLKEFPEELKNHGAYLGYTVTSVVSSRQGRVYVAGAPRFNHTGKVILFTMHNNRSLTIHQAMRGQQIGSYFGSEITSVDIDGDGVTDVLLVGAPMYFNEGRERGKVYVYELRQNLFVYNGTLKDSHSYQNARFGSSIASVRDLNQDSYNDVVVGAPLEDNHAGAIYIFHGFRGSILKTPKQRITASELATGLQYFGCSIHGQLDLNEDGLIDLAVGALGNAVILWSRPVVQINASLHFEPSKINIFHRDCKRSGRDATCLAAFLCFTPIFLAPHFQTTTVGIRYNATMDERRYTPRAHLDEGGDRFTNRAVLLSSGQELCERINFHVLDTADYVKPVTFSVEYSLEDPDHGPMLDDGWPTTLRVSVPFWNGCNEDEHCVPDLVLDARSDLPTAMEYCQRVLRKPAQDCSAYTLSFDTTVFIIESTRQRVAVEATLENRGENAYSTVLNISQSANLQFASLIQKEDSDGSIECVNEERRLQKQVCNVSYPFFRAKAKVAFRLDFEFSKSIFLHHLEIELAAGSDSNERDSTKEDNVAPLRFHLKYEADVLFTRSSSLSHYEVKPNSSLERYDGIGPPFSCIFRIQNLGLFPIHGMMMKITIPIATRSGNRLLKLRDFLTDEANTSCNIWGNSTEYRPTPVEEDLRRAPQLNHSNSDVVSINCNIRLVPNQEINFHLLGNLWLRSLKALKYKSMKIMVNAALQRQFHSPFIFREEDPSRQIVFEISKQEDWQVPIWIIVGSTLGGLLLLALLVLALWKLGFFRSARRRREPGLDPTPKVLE

B1: 9-G05: mouse anti-α11β1 mAb; VH SEQ ID NO: 103, VL SEQ ID NO: 104 (antibody, V domains shown)
VH: EVQLQQSGPELVKPGASVKIPCKASGYTFPDYNMDWVKQSHGKSLEWIGYINPDNGGTIYNQKFKGKATLTVDKSSSTAYMELRSLTSEDTAVYYCARLDSSGYGYYAMDYWGQGTSVTVSS
VL: DIVLTQSPASLAVSLGQRATISCRASESVDNYGISFMHWYQQKPGQPPKLLIYRASNLDSEIPARFSGSGSRTDFTLTIDPVETDDVATYYCQQSYKDPRTFGGGTKLEIK
B2: 8-I14: mouse anti-α11β1 mAb; VH SEQ ID NO: 109, VL SEQ ID NO: 110 (antibody, V domains shown)
VH: EVQLQQSGPELVKPGASVKKSCKASGYTFTDYYMHWVKQKPGQGLEWIGKIYPGSGNTHYNEKFKGKATLTADKSSSTAYMQLSSLTSEDSAVYFCATNYYGYRAMNYWGQGSSVTVSS
VL: DIHLTQSPSSLSASLGERISLTCRASQDIYISLNWFQQKPDGTIKLLIYGTSSLDSGVPKRFSGSRSGSDYSLTISSLESEDFADYYCLQYASSPYTFGGGTKLEIK
B3: 8-P20: mouse anti-α11β1 mAb; VH SEQ ID NO: 105, VL SEQ ID NO: 106 (antibody, V domains shown)
VH: KVMLVESGGALVKPGGSLKLSCVASGFTFSNYAMSWVRQTPEKRLEWVATISSGGYYTYYPDSVKGRFTISRDNARNTLFLQMSSLRSEDTAMFYCAREDDYGRYSYTMDYWGQGTSVTVSS
VL: DVVMTQTPLSLPVSLGDQVSISCRCSQSLVHSNGNTYLHWYLQKPGQSPQLLIYKISNRFSGVPDRFSGSGSGTDFTLKISRVEAEDLGVYFCSQSTHVPYTFGGGTELEIK
B4: 8-J17: mouse anti-α11β1 mAb; VH SEQ ID NO: 113, VL SEQ ID NO: 114 (antibody, V domains shown)
VH: QVQLQQSGAELAKPGASVKMSCKASGYTFTNYWMHWVKQRPGQGLEWIGYINPNNGYTEYNQRFKDKATLTADRSSTTAYMQLSSLTSEDSAVYYCARSDIITTDYWGQGTTLTVSS
VL: B3 VL with V19A, C25S, H31Y, Q50K, I56V, Y101W, E108K
B5: 79E3E3: rat anti-α11β1 mAb; VH SEQ ID NO: 145, VL SEQ ID NO: 146 (antibody, V domains shown)
VH: MDWLWNLLFLMVVAQSAQAQIQLVQSGPEVKKPGESVKISCKASGYTFTDYAMNWVKQAPGNGLKWMGWINTQTGKPTYADDFKQRFVFSLETSARTTYLQINNLNIEDTATYFCTRLGTGNTKGFAYWGQGTLVTVSS
VL: MESQTHVLISLLLCVSGTCGDILINQSPASLTVSAGERVTMSCKSSQSLLYSENNQDYLAWYQQKPGQFPKLLIYGASNRHTGVPDRFTGSGSGTDFTLTISSVQAEDLADYYCEQTYRYPFTFGSGTKLEIK
B6: 40G10H11: rat anti-α11β1 mAb; VH SEQ ID NO: 157, VL SEQ ID NO: 158 (antibody, V domains shown)
VH: MDIRLSLGFLVLFIKGDQCAVQLVESGGGLVQPGRSLKLSCAASRITFTDYYMAWVRQAPTKGLEWVATISSDGGDTFYRDSVKGRFTISRDNAKSTLYLQMVSLRSEDTATYYCSTDRGAQFGYWGQGTLVTVSS
VL: MAPVQLLGLLLIWLPAMRCDIQMTQSPSFLSASVGDRVSINCKASQNVHENLNWYQQKLGEAPKRLIYNTNNLQTGIPSRFSGSGSGADYTLTISSLQPEDFATYFCLQHNAFPYTFGPGTKLELK
B7: 8H8E9: rat anti-α11β1 mAb; VH SEQ ID NO: 149, VL SEQ ID NO: 150 (antibody, V domains shown)
VH: MAVLVLLLCLVTFPSCALSQVQLKESGPGLVQPSQTLSLTCTVSGFSLTSNSVSWVRQAPGKGLEWMGAIWSGGSTDYNSALKSRLSISRDTSKSQVFLKMNSLQTEDTAIYFCTRSHWEPFDYWGQGVMVTVSS
VL: MESQTQALISLLLWVYGTCGDIVMTQSPFSLAVSEGEMVTINCKSSQGLLSSGNQKNYLAWYQQRPGQSPKLLIYYASTRQSGVPDRFIGGGSGTDFTLTISDVQAEDLADYYCLQHYSYPPTFGSGTKLEIK
B8: 6E5C11: rat anti-α11β1 mAb; VH SEQ ID NO: 151, VL SEQ ID NO: 152 (antibody, V domains shown)
VH: B7 VH with K24R, S54T, A59P, G73D, A81T, N102S
VL: B7 VL with F29L, M38T, I41M, G48S, L50F, R65K, G91S, A106T, S119N
B9: 18E10F10: rat anti-α11β1 mAb; VH SEQ ID NO: 155, VL SEQ ID NO: 156 (antibody, V domains shown)
VH: MDIRLSLVFLVLFMKGVQCEVQLVESGGGLVQPGRSLKLSCAASRFTFSDYNMAWVRQAPKKGLEWVATIYHDDSGSYYRDSVKGRFTISRNNAKSTLYLQMDSLRSEDMATYYCARHNNGFDYWGQGVMVTVAS
VL: MKWPVRLLVLFFWIPASGGDVVMTQTPVSLPVRLGGQASISCRSSQSLVHSNGNTYLHWYLQKPGQSPQLLINRVSNRFSGVPDRFSGSGSGTDFTLKINRVEPEDLGDYYCLQSTHFPLTFGSGTKLETK

These molecules were tested against T1, α11β1 expressed on the surface of CHO-K1 cells (assay: FACS antibody binding to CHO-K1 cells expressing human α11). Settings: FACS.
Method: 200,000 cells (wild-type CHO-K1 cells or CHO-K1 cells expressing human α11) were incubated with each antibody at desired concentrations in FACS buffer for 30 min at 4° C. Then, the cells were washed with FACS buffer and incubated with secondary antibody at 1:100 dilution for 30 minutes at 4° C. Cells were then washed and fixed with 1% PFA in PBS for 20 minutes at room temperature; washed again and read on a cytometer in FACS buffer.
Since integrins are large, transmembrane receptors that exist in different conformational shapes, experiments were performed to confirm that the novel antibodies also bound cell-expressed α11β1. A CHO-K1 cell line that endogenously expressed high levels of the β1 subunit was engineered to stably express human α11 (CHO-K1 hu α11).
Binding EC50 was estimated using data from Fluorescence-activated cell sorting (FACS) performed with CHO-K1 hu α11β1 cells.

| Molecule | CHO-K1 binding EC50 (in words) |
| --- | --- |
| B1 | not as potent |
| B2 | low nanomolar range |
| B3 | low nanomolar range |
| B4 | low nanomolar range |

Same assay, conditions: binding Yes/No

| Molecule | CHO-K1 FACS |
| --- | --- |
| B5 | Yes |
| B1 | Yes |
| B6 | Yes |
| B2 | Yes |
| B7 | Yes |
| B8 | Yes |
| B9 | Yes |
| B3 | Yes |
| B4 | Yes |

The molecules below were run against mouse α11β1 (Mus musculus, UniProt P61622) (assay: ELISA binding to recombinant mouse α11β1). Settings: not given.
mouse α11β1, sequence (P61622 23-1141 limits assumed): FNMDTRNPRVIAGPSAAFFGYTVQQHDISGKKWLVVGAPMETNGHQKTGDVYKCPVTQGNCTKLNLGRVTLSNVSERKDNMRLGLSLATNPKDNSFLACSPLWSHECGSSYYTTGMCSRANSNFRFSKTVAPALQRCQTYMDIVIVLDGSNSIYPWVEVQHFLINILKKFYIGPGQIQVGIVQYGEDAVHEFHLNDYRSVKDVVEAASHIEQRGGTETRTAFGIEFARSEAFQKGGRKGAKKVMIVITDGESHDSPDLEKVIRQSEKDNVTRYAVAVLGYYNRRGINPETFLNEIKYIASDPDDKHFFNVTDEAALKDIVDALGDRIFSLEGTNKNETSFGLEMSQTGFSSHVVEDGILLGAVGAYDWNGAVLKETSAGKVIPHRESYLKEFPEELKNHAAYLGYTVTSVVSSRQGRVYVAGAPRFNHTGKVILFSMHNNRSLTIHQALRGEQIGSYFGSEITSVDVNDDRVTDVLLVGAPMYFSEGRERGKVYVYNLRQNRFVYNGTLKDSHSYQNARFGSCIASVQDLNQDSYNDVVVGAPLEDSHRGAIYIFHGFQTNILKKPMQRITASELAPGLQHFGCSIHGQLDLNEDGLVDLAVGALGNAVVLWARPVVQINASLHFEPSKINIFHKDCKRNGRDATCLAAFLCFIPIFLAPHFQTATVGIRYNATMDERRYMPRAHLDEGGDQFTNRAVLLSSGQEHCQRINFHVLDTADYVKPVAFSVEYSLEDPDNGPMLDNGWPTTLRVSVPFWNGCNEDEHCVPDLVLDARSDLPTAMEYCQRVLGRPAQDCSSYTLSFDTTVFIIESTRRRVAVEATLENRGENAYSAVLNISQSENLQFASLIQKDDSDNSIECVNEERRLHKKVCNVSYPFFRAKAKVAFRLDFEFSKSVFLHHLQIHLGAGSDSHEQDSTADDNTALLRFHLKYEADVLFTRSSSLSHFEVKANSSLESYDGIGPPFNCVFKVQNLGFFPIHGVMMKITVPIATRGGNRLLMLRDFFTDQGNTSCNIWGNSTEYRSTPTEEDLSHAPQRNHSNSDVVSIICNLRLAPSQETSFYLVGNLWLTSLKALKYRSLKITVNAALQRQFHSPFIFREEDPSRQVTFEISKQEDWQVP
mouse α11β1, sequence (P09055 21-728 partner limits assumed): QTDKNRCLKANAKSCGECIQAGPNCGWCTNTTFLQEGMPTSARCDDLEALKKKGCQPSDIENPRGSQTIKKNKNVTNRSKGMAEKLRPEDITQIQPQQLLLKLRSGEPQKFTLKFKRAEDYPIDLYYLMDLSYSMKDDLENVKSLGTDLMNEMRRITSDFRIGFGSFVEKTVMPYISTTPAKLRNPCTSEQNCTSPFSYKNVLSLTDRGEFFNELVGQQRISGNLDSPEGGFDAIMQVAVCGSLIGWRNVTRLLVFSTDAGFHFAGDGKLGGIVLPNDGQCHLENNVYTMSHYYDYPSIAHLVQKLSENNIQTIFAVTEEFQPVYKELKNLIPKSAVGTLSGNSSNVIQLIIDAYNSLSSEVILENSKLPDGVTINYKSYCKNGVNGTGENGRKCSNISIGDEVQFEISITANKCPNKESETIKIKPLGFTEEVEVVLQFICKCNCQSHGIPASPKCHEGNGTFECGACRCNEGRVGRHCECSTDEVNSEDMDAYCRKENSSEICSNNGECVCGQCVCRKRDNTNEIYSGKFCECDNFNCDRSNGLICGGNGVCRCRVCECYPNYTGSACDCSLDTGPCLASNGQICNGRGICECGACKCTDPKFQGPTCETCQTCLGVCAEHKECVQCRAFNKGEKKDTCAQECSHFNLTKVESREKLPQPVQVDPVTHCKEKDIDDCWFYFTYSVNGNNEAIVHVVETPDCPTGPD
Method: 0.25 μg/mL of target antigen (recombinant human or mouse α11β1) was plated in a 96-well plate over night at 4° C. Plates were washed (PBS with 0.1% Tween-20), blocked (PBS with 2% BSA and 0.05% Tween-20) for 1 hour at room temperature and incubated with a range of antibody concentrations for 1 hour at room temperature. Subsequently, plates were washed and incubated with biotinylated anti-rabbit/mouse/human IgG in a 1:1000 dilution buffer and incubated for 1 hour at room temperature. After washing the plates, Streptavidin HRP was added at 1:200 in dilution buffer and incubated for 1 hour at room temperature. Ultra TMB ELISA substrate solution was added and the plates incubated for 5 minutes on a plate shaker. The reaction was stopped by adding stop solution to each well and plates were read at 450 nm.

| Molecule | binding to mouse α11β1 |
| --- | --- |
| B5 | cross-reacts with mouse α11β1 |

Same assay, conditions: binding Yes/No

| Molecule | Murine α11β1 ELISA |
| --- | --- |
| B5 | Yes |
| B1 | Yes |
| B6 | Yes |
| B2 | Yes |
| B7 | No |
| B8 | No |
| B9 | No |
| B3 | No |
| B4 | No |

Each molecule was assayed on myofibroblasts (MF) (assay: FACS antibody binding to myofibroblasts). Settings: binding Yes/No.
Design: species or system human
Method: Human Pulmonary Fibroblasts (ScienCell) were cultured in complete Fibroblast Growth Medium (ScienCell) until 80% confluent in T-150 flasks. Cells were washed and harvested using Accutase. Cells were seeded into T-150 flasks at 7,500 cells/cm^2 in complete FGF and cultured for 72 hours. Cells were then washed and starved in serum reduced medium for 24 hours. After starvation, cells were treated with TGFβ-1 (R&D Systems) for 72 hours. Cells were harvested using Accutase and seeded in 96-well conical bottom plates. Cells were blocked with Heat Inactived Fetal Bovine Serum (Gibco) for 30 minutes at 4° C. Cells were then incubated with anti-α11 antibodies at the doses described in each figure for 30 minutes at 4° C. A human anti-α11 antibody (Creative BioLabs) was included as a positive control as well as the appropriate IgG isotype negative controls. Cells were washed twice and incubated with PE conjugated secondary antibodies specific to the IgG class of the anti-α11 antibodies being tested for 30 minutes at 4° C. Cells were washed twice and fixed in 1% PFA for 30 minutes. Cells were acquired on a FACS Verse […]. Data were analyzed by gating on single cells and determining the geometric Mean Fluorescence Intensity (gMFI) in the PE channel for each sample.
Binding to a physiologically relevant primary human cell type was also tested. Human pulmonary fibroblasts (HPF) and TGFβ treatment were used to induce a fibroblast-to-myofibroblast transition (FMT), giving rise to myofibroblasts (MF). […] Additionally, HPFs express α11 and α2β1, other collagen binding receptors, which means that HPFs can be to test cross-reactivity of antibodies of interest.

| Molecule | MF FACS |
| --- | --- |
| B5 | Yes |
| B1 | Yes |
| B2 | Yes |
| B3 | Yes |
| B4 | Yes |
